Measured values reported in publication PMC9900802.

Target: LUC^N-MLO2^CT-LW/RR (A. thaliana)
Assay: split reporter

luciferase activity (median): 4900 units/mm^2
Substance: LUC^C-CAM2 (pAMPAT-LUC^C) (from UniProt P0DH97 1-149) (natural protein)
